Experimental findings from US20120308575A1 (SHANGHAI BIOMABS PHARMACEUTICALS, published 2012) are described below.

The target of assay [1] is T1, recombinant human TNF-α (Product 210-TA-050, R&D) (human, UniProt P01375 77-233).
T1 construct: Bought protein; Amine-coupled to the chip in SPR, biotin-labelled in the P75 ELISA, FITC-labelled in the U937 assay; also called rhTNF-α; Recombinant TNFα (R&D)
The assay can be described thus: SPR, Biacore T100, TNFα amine-coupled to CM5 chip, antibody in flow. The protocol:
After each examination, they were washed with 5 μl of 50 mM hydrochloric acid aqueous solution at a flow rate of 3 μl/min so as to wash away the residual antibodies from the immobilized ligands. The binding curves were subjected to nonlinear regression analysis using BIAevalution software (T100 evalution version 2.0, Biacore).

Assay [2] has as its target T1, recombinant human TNF-α (Product …). The assay can be described thus: competition ELISA: biotin-TNF-α (10 ng/ml) on coated P75 receptor-Fc, antibody titrated; average of 3. As for the experimental part: (§1) 10 μg/ml of P75 receptor-Fc fusion protein (which was prepared according to the method described in Chinese Patent Application No. 01132074.5 entitled “Recombinant genes, fusion genes and products of the soluble fragment of Tumor Necrosis Factor Receptor” filed on Oct. 31, 2001) was used to coat ELIAS plates and reacted at 37° C. for 2 h; 3% BSA-PBS was used to block the plate wells and reacted overnight at 4° C. […] The diluted samples and control samples were added to washed ELIAS plates with 100 μl/well and reacted at 37° C. for 1 h; the ELIAS plates were washed; HRP-avidin (Zymed) was diluted at 1:1000 with PBS and added to the ELIAS plates with 100 μl/well and reacted at 37° C. for 1 h; the ELIAS plates were washed; equal volumes of A solution and B solution (Jingmei BioTech Co. Ltd.) of TMB substrate for HRP were mixed and added to the ELIAS plates with 100 μl/well and reacted at room temperature for 10 minutes in darkness; each well was added with 100 μl of 0.5M sulphuric acid to stop the reaction. Absorbance at […] was measured using microplate reader. The concentration of samples was used as x-coordinate and absorbance was used as y-coordinate.
A general note: ELISA stands for enzyme-linked immunosorbent assay.

For assay [3] the target is unchanged. Briefly: flow cytometry competition: FITC-TNF-α (100 ng/ml) on U937 cells, antibody titrated; experiment 2. As for the experimental part: (§2) U937 cells (ATCC CRL1593) were cultured in RPMI-1640 medium (GIBCO) containing 10% fetal bovine serum (JRH). […] The cells at logarithmic growth phase were counted and then centrifuged at 200 g for 5 min. Supernatant was removed and cell pellets were resuspended in PBS containing 1% fetal bovine serum. The cells were adjusted to a concentration 1×10⁶/ml, and then distributed into flow cytometry test tubes, with 100 μl/tube. […] The diluted samples and control samples were added into flow cytometry test tubes, with 100 μl/tube, and reacted at 4° C. for 1 hour in darkness; the cells were washed twice with PBS containing 1% fetal bovine serum, and centrifuged at 200 g for 5 min each time. Supernatant was removed and cell pellets were resuspended in 300 μl of PBS containing 1% fetal bovine serum. Flow cytometry was used to measure the fluorescence intensity of each tube. Sample concentration was plotted on the x-coordinate and […] was plotted on the y-coordinate.
(In general: Flow cytometry measures light scatter and fluorescence of single cells or particles in a stream.)

For assay [4] the target is unchanged. The assay can be described thus: competition ELISA: biotin-TNF-α (10 ng/ml) on coated P75 receptor-Fc, antibody titrated; experiment 1. As for the experimental part:
as §1

For assay [5] the target is unchanged. Briefly: flow cytometry competition: FITC-TNF-α (100 ng/ml) on U937 cells, antibody titrated; experiment 3. The protocol: as §2
For assay [6] the target is unchanged. The assay can be described thus: flow cytometry competition: FITC-TNF-α (100 ng/ml) on U937 cells, antibody titrated; experiment 1. As for the experimental part:
as §2

The target is the same in assay [7]. Briefly: competition ELISA: biotin-TNF-α (10 ng/ml) on coated P75 receptor-Fc, antibody titrated; experiment 3. The protocol: as §1
For assay [8] the target is unchanged. The assay can be described thus: competition ELISA: biotin-TNF-α (10 ng/ml) on coated P75 receptor-Fc, antibody titrated; experiment 2. The protocol:
as §1

The target is the same in assay [9]. Briefly: flow cytometry competition: FITC-TNF-α (100 ng/ml) on U937 cells, antibody titrated; average of 3. The protocol: as §2
For assay [10] the target is unchanged. Briefly: cell-based or functional assay.

T1 sequence (P01375 77-233 limits assumed): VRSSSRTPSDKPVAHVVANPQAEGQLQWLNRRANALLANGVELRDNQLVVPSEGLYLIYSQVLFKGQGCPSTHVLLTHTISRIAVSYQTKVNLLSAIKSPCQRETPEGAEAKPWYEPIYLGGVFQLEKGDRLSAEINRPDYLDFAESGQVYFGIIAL

B1: fully human anti-TNF-α monoclonal antibody 4H16 (antibody, human IgG1, kappa, V domains shown)
VH: QVTLRESGPALVKPTQTLTLTCTFSGFSLSTSGMCVSWIRQPPGKALEWLALIDWDDDKYYSTSLKTRLTISKDTSKNQVVLTMTNMDPVDTATYYCARILVDIVATITNDAFDVWGQGTMVTVSS
VL: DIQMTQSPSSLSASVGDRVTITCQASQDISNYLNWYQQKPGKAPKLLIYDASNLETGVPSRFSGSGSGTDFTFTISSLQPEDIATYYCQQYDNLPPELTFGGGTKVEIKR
notes: The genes carried a signal peptide at the 5' end; also called fully human antibody 4H16
Regarding B1, the Kd (commonly the constant that tells how readily two partners part at equilibrium) in assay [1] was 0.36 nM. The koff (commonly a measure of how fast the partners let go of each other) in [1] is 5.7e-05 s⁻¹. In [1], the kon (in general, a measure of how fast the partners come together) stood at 158000 M⁻¹ s⁻¹. The IC50 (as a rule, the concentration that inhibits the measured activity by half) in assay [2] was found to be 0.28 µg/mL; in assay [3], 1.03 µg/mL; in [4] it was 0.25 µg/mL; in [5] it was 0.97 µg/mL; in assay [6], 0.89 µg/mL; in assay [7], 0.27 µg/mL. Besides, the IC50 in [8] turned out to be 0.31 µg/mL; in [9], 0.96 µg/mL. The “IC50 of resistance to TNF-α-mediated killing of L929 cells (MTS), average” value in [10] was determined as 0.0572 µg/mL. For the same molecule, in [10], the “IC50 of resistance to TNF-α-mediated killing of L929 cells (MTS), experiment 1” value came to 0.0592 µg/mL. For the same molecule, the “IC50 of resistance to TNF-α-mediated killing of L929 cells (MTS), experiment 2” value in assay [10] worked out at 0.0459 µg/mL. Moreover, the “IC50 of resistance to TNF-α-mediated killing of L929 cells (MTS), experiment 3” value in assay [10] turned out to be 0.0664 µg/mL.
